Reference: US20080318868A1

Tests used:
[1] = target: CS40 anti-ManLAM monoclonal antibody; assay: competitive ELISA, ManLAM-coated plate, CS40 (1:2000) mixed with peptide; at 50 µg/ml peptide
[2] = target: CS40 anti-ManLAM monoclonal antibody; assay: competitive ELISA, ManLAM-coated plate, CS40 (1:2000) mixed with peptide

Binder: ISLTEWSMWYRH [B11 synthetic peptide]
- decrease in OD (inhibition of CS40 binding to ManLAM) [1]: 100%
- peptide concentration giving 100% decrease in OD [2]: 50 µg/mL
